Experimental data taken from PMC12246787.

Biological target: FcγRIIIa receptor immobilised on the TSKgel FcR-IIIA-NPR column (UniProt P08637)
Assay: FcγRIIIa affinity chromatography; FcγRIIIa immobilised on a TSKgel FcR-IIIA-NPR column (4.6 x 75 mm); antibody injected (20 µL); 0.05 M sodium citrate, 0.150 M NaCl, 10 min at pH 6.5, then linear gradient to pH 4.5 in 40 min; 0.375 mL/min; 20°C; UV 280 nm; eluting peaks collected and their glycoforms assigned by HILIC-MS

UniProt P08637, sequence (P08637 17-208): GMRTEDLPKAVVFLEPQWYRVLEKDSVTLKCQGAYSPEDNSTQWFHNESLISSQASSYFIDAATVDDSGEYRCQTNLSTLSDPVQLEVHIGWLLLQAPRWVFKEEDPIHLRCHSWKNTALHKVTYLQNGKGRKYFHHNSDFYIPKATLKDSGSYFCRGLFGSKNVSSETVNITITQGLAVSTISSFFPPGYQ

“rituximab produced in glycoengineered ΔXF N. benthamiana plants (antibody)” showed an RT (min) on the FcγRIIIa column, peak #1 (G0 100%) of 30.5 min.
In the case of “commercial rituximab (MabThera) produced in CHO cells (antibody)”, the RT (min) on the FcγRIIIa column, peak #1 (G0F 74%, G1F 25%) is reported as 22.9 min, the RT (min) on the FcγRIIIa column, peak #2 (G0F 43%, G1F 43%, G2F 14%) is reported as 28.2 min and the RT (min) on the FcγRIIIa column, peak #3 (G1F 72%, G2F 28%) is reported as 33.2 min.
“rituximab produced in wild-type N. benthamiana, G0 glycoform (antibody)” was tested, and the RT (min) on the FcγRIIIa column, peak #1 (G0 100%) was 30.3 min.
“rituximab produced in wild-type N. benthamiana agroinfiltrated in the presence of the kifunensine mannosidase I inhibitor (antibody)” showed an RT (min) on the FcγRIIIa column, peak #1 (Man8 14%, Man9 86%) of 24.9 min.
